B1: Lon N-terminal domain peptide (aa 1-245) (domain or fragment, E. coli, UniProt P0A9M0 1-245, looked up)
chain: MNPERSERIEIPVLPLRDVVVYPHMVIPLFVGREKSIRCLEAAMDHDKKIMLVAQKEASTDEPGVNDLFTVGTVASILQMLKLPDGTVKVLVEGLQRARISALSDNGEHFSAKAEYLESPTIDEREQEVLVRTAISQFEGYIKLNKKIPPEVLTSLNSIDDPARLADTIAAHMPLKLADKQSVLEMSDVNERLEYLMAMMESEIDLLQVEKRIRNRVKKQMEKSQREYYLNEQMKAIQKELGEMD
notes: Lon protease, E. coli, UniProt P0A9M0, N-terminal domain, aa 1-245; also called NTD; NTD peptide; source: E. coli BL21 (DE3), purified (Strep-Tactin Sepharose)
B2: His-tagged full-length N-MYC (natural protein, human, UniProt P04198 1-464, looked up)
chain: MPSCSTSTMPGMICKNPDLEFDSLQPCFYPDEDDFYFGGPDSTPPGEDIWKKFELLPTPPLSPSRGFAEHSSEPPSWVTEMLLENELWGSPAEEDAFGLGGLGGLTPNPVILQDCMWSGFSAREKLERAVSEKLQHGRGPPTAGSTAQSPGAGAASPAGRGHGGAAGAGRAGAALPAELAHPAAECVDPAVVFPFPVNKREPAPVPAAPASAPAAGPAVASGAGIAAPAGAPGVAPPRPGGRQTSGGDHKALSTSGEDTLSDSDDEDDEEEDEEEEIDVVTVEKRRSSSNTKAVTTFTITVRPKNAALGPGRAQSSELILKRCLPIHQQHNYAAPSPYVESEDAPPQKKIKSEASPRPLKSVIPPKAKSLSPRNSDSEDSERRRNHNILERQRRNDLRSSFLTLRDHVPELVKNEKAAKVVILKKATEYVHSLQAEEHQLLLEKEKLQARQQQLLKKIEHARTC
notes: N-MYC, human, full length; source: bought: Signalway (SAB Signalway Antibody), Cat# AP72694

What was measured:
Assay in all cases: SPR; Biacore X100; His-tagged ligand (~0.2 µM) captured on Ni-charged Sensor Chip NTA; Lon protein or domain injected at five dilutions; 25 °C, 30 µL/min; running buffer as printed 0.1 M HEPES, 1.5 M NaCl, 0.03 M EDTA, 0.5% v/v Surfactant P20; reference cell without nickel; 1:1 Langmuir fit
Details in all cases: both partners purified
[1] = target: B2
[2] = target: T1, His-tagged full-length c-MYC (human, UniProt P01106-1 1-439)
T1 construct: c-MYC, human, full length; see the vendor's catalogue entry; source: bought: Cusabio, CSB-EP015270HU
T1 sequence (P01106 16-454): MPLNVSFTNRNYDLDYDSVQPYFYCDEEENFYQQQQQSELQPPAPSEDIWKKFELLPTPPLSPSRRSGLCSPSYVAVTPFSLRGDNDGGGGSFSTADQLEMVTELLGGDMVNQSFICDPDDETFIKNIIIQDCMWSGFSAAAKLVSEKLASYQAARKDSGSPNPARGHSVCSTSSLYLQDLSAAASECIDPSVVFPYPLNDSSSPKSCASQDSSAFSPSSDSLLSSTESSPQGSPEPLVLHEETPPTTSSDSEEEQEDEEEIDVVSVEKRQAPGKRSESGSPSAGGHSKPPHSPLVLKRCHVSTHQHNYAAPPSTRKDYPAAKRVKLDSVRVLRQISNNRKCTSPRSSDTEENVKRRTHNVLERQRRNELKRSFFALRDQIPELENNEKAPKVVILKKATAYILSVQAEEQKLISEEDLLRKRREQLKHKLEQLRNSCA

[3] = target: T2, recombinant Escherichia coli Lon protease (aa 1-778) (E. coli, UniProt P0A9M0 1-778)
T2 construct: Lon protease, E. coli, UniProt P0A9M0, aa 1-778 as printed; Gene synthesised (GenScript) and cloned in a pASK-63 A+ vector (IBA); also called rLon; full-length Lon; source: E. coli BL21 (DE3), purified (Strep-Tactin Sepharose)

## B1
[1]
  Kd: < 1000 nM
[2]
  Kd: < 1000 nM

## B2
[3]
  binding result: binds

— article PMC11861601, “Multitarget mechanism of MYC inhibition by the bacterial lon protease in disease” (Scientific Reports, 2025)
